What was measured:
[1] = system: radiolabeled βAPP-C83 polypeptide mimic
[2] = system: radiolabeled βAPP-C100 polypeptide mimic

solubilized gamma-secretase complex (gamma-secretase associated with PS1) from HeLa cell membranes
cleavage of 35S-labeled substrate, SDS-PAGE and phosphorimager [1]: The radiolabeled βAPP-C83 substrate was also cleaved by the gamma-secretase complexes present in the solubilized protein and protein complex preparation (FIG. 7) and the affinity enriched protein preparation, to yield a 6 kDa cleavage product | cleavage of 35S-labeled substrate, SDS-PAGE and phosphorimager [2]: The radiolabeled βAPP-C100 substrate was cleaved by the gamma-secretase complexes present in the solubilized protein and protein complex preparation (FIGS. 6 and 7) and the affinity enriched protein preparation (FIG. 8), to yield a 6 kDa cleavage product

Reference: patent US20040121411
